Series [1] has as its target LS4 (Archaeoglobus fulgidus scaffold, laboratory-evolved) (UniProt O29494). The series is described as follows: EMSA. The conditions noted are these: titration regime; SPR: 10 mM HEPES pH 7.4, 150 mM NaCl, 1 mM MgCl2, 0.05% P20, 0.25 mM TCEP, 0.1 mg/ml BSA, 25 ug/ml yeast tRNA, 25 C; EMSA: 10 mM HEPES-KOH pH 7.5, 140 mM KCl ….
The target in series [2] is T1, LS12 E34S (Archaeoglobus fulgidus scaffold, laboratory-evolved) (UniProt O29494).
T1 sequence: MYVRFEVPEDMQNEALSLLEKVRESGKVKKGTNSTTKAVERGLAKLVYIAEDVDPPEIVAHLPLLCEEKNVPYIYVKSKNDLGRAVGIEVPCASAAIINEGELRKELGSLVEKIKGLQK
Put plainly: EMSA. The conditions noted are these: titration regime; SPR: 10 mM HEPES pH 7.4, 150 mM NaCl, 1 mM MgCl2, 0.05% P20, 0.25 mM TCEP, 0.1 mg/ml BSA, 25 ug/ml yeast tRNA, 25 C; EMSA: 10 mM HEPES-KOH pH 7.5, 140 mM KCl …. (In general: In EMSA bound probe runs differently from free probe, usually more slowly.)

Series [3] has as its target LS4 (Archaeoglobus fulgidus scaffold, laboratory-evolved) (UniProt O29494). Put plainly: SPR. The conditions noted are these: SPR: 10 mM HEPES pH 7.4, 150 mM NaCl, 1 mM MgCl2, 0.05% P20, 0.25 mM TCEP, 0.1 mg/ml BSA, 25 ug/ml yeast tRNA, 25 C; EMSA: 10 mM HEPES-KOH pH 7.5, 140 mM KCl ….
Series [4] has as its target T1, LS12 E34S (Archaeoglobus fulgidus scaffold, laboratory-evolved). The series is described as follows: SPR. The conditions noted are these: SPR: 10 mM HEPES pH 7.4, 150 mM NaCl, 1 mM MgCl2, 0.05% P20, 0.25 mM TCEP, 0.1 mg/ml BSA, 25 ug/ml yeast tRNA, 25 C, EMSA: 10 mM HEPES-KOH pH 7.5, 140 mM KCl ….

The term Kd denotes the constant that tells how readily two partners part at equilibrium. Higher therefore signals a looser complex.

The sequence “AGAGGCAGAGAAAGGGAAACCUUGUGAGGCCUCU [Cy5-CS1]” displayed an equilibrium dissociation constant (Kd) in series [1] of less than 0.5 nM.
Sequence “AGAGGCAGAGAAGGAAACUUCCAUGACGCCUCU [Cy5-CS2]” yielded a dissociation constant Kd in series [2] of less than 0.5 nM.
For “GGAUCGCGUGAUCCGAAAGGUGACGAUCCAAAUCGACGAAAGACACAGAACG [Box C/D Kt (Kt_SPR)]”, the dissociation constant (Kd) is 599 nM in series [3] and 14.5 nM in series [4].
On to “GGAUGCAGAGAACGAAAGUUCCAUGACGCAUCCAAAUCGACGAAAGACACAGAACG [CS2]”, for which the figures for the dissociation constant (Kd) in series [3] and in series [4] were 114 nM and 0.00724 nM, respectively.
Turning to “GGAUGCAGAGAACGAAAGUUCCAUUACGCAUCCAAAUCGACGAAAGACACAGAACG [CS2-M3]”, the Kd in series [4] came out at 6.02 nM.
The sequence “GGCAGAGAAAGGCCAUACAAUCAUUGGCCUUGUGAGGCCGUGUGUCUUCCAGUGGCAUCGACGAAAGACACAGAACG [LS4-1]” registered a Kd in series [3] of 0.0736 nM. This counts as picomolar.
For the sequence “GGCAGAGAAAGGCCAUACAAUCAUUGGCUUUUCCAUGACGCCAGUUCCAGUGGCAUCGACGAAAGACACAGAACG [LS12-1]”, in series [4], the Kd was 0.0105 nM.
Sequence “GGUGGCAAAGAAAGGCGAAAGCCUUGUGAGGCCAUCAAAUCGACGAAAGACACAGAACG [CS1-M2b]” displayed a dissociation constant Kd in series [3] of 0.0865 nM. Also, the Kd fold change relative to LS4 (fold higher Kd than LS4) in series [4] came out at 1270.
Regarding “GGUGGCAGAGAAAGGCGAAAGCCUUGUGAGGCCAUCAAAUCGACGAAAGACACAGAACG [CS1]”, the figures for the Kd in series [3] and in series [4] (equilibrium analysis) were 0.00682 nM and 27.5 nM, respectively.
For the sequence “GGUGGCAUAGAAAGGCGAAAGCCUUGUGUGGCCAUCAAAUCGACGAAAGACACAGAACG [CS1-M2]”, the dissociation constant Kd is 2.21 nM in series [3] and more than 1000 nM in series [4] (N.D. in Table S4).
For “GGUGGCUGAGAAAGGCGAAAGCCUUGUGAUGCCAUCAAAUCGACGAAAGACACAGAACG [CS1-M1]”, the dissociation constant Kd in series [3] amounted to 0.171 nM; in series [4] (equilibrium analysis), 7.7 nM.

The values are drawn from article PMC8789040.
